# Test system: JNK inhibitor according to SEQ ID NO: 172 ("XG-104")
substance,measurement,value
c-Jun N-terminal kinase (JNK) in primary mouse cortical neurons,"c-Jun phosphorylation (immunoblot), WT neurons stressed with 2 µM Aβ42, 10 µM XG-104",XG-104 showed -29% efficacy in order to decrease c-Jun phosphorylation (FIG. 55 C)
